Consider three molecules from PMC3537517, “In vitro substrate phosphorylation by Ca^2+/calmodulin-dependent protein kinase kinase using guanosine-5^′-triphosphate as a phosphate donor” (BMC Biochemistry, 2012).

The term IC50 denotes the concentration needed to halve the response being measured. As a reminder, the Km is the substrate concentration at which the rate is half of its maximum. What is called Vmax is the rate approached at saturating substrate.

In one series the target is T1, CaMKKα (Rattus norvegicus, UniProt P97756).
T1 construct: gene Camkk1; recombinant CaMKKα purified from E. coli; with calmodulin (Ca2+/CaM)
T1 sequence (P97756 whole entry): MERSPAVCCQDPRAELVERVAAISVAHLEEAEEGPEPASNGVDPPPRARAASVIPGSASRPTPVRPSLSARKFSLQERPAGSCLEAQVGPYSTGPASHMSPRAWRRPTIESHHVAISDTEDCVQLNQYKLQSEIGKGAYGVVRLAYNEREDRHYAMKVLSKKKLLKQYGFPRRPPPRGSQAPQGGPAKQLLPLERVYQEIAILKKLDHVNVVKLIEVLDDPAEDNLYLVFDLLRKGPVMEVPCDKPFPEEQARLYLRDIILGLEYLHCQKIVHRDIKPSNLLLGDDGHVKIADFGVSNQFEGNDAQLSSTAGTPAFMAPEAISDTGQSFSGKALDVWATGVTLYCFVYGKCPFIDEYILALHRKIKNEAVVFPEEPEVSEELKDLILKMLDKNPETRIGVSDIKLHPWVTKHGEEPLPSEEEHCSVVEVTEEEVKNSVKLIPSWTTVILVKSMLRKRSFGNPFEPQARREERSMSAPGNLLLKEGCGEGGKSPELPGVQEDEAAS
The series is described as follows: […]-GTP kinase assay with GST-CaMKIα ([…]-293, K49E); Lineweaver-Burk. It is filed as biochemical.

For another series, the target named is T2, CaMKKβ (Rattus norvegicus, UniProt O88831).
T2 construct: gene Camkk2; recombinant CaMKKβ purified from E. coli; with calmodulin (Ca2+/CaM)
T2 sequence (O88831 2-587): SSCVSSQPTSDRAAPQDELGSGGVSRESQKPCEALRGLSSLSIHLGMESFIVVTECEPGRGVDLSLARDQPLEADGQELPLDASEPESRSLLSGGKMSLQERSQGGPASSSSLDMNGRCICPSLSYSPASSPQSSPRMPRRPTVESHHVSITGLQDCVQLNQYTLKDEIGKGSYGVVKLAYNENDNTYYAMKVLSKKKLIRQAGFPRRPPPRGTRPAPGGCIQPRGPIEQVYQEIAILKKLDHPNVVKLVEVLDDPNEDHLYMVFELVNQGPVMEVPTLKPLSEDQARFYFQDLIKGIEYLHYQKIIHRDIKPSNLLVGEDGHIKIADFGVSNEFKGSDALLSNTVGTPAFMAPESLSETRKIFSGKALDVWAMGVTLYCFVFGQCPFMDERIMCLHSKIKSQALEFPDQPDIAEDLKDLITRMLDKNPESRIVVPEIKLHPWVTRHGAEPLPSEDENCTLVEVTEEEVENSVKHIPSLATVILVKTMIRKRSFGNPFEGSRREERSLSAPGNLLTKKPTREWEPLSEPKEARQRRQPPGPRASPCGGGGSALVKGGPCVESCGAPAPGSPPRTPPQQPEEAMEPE
Described as above. In kind it is biochemical.

Series [1] concerns Nc1ncnc2c1ncn2[C@@H]1O[C@H](COP(=O)(O)OP(=O)(O)OP(=O)(O)O)[C@@H](O)[C@H]1O. The series is described as follows: purified protein. The settings on record: Mg2+, Ca2+ phosphate donor; 30.0 °C.
The test system of series [2] is Nc1nc2c(ncn2[C@@H]2O[C@H](COP(=O)(O)OP(=O)(O)OP(=O)(O)O)[C@@H](O)[C@H]2O)c(=O)[nH]1. The series is described as follows: purified protein. To be noted: Mg2+, Ca2+ phosphate donor; STO-609 competes with GTP; 30.0 °C.

Take `O=C(O)c1ccc2c3c1cccc3c(=O)n1c3ccccc3nc21` [STO-609, 7H-benzimidazo[2,1-a]benz[de]isoquinoline-7-one-3-carboxylic acid]: the results for the IC50 on CaMKKα and against CaMKKβ were 255 nM and 38.2 nM, respectively.
Take CaMKKα (Rattus norvegicus): in series [1], the Michaelis constant (Km) was 15 µM and the Vmax turned out to be 0.625 µmol/min/mg. Further, in series [2], the Km came to 444 µM and the Vmax is 0.312 µmol/min/mg.
Turning to CaMKKβ (Rattus norvegicus), in series [1], the Km was found to be 15 µM and the Vmax turned out to be 0.286 µmol/min/mg. In series [2], the Km amounted to 507 µM and the Vmax is 0.077 µmol/min/mg.
